Reference: US11633499B2, “Anti-TMEM-180 antibody, anticancer drug and cancer testing method” (NATIONAL CANCER CENTER JAPAN, priority 2016, dated 2023)

T1: TMEM-180 (Homo sapiens, UniProt Q14CX5)
T1 construct: endogenous in cells; host or cells: DLD-1 colon cancer cell line (parent / wild type); culture supernatant exosomes in A20
T1 sequence (Q14CX5 1-517): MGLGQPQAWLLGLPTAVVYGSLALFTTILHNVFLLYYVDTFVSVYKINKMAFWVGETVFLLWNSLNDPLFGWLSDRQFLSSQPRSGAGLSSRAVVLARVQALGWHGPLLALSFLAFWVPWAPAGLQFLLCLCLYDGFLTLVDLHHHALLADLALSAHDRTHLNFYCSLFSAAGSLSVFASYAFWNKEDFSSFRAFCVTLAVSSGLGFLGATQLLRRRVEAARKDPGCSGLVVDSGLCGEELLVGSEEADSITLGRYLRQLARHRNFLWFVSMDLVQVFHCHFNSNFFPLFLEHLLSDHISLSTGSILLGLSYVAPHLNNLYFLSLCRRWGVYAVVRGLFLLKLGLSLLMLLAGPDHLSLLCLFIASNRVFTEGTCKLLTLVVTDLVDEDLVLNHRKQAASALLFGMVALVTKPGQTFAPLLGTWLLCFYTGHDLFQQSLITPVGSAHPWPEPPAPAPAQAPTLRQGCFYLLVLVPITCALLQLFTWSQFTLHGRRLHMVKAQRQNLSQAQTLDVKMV


Key:
[1] = system: DLD-1 colon cancer cells; assay: Fluorescent immunostaining of DLD-1 colon cancer cells; format: binding, human; settings: fixed and permeabilized DLD-1; antibody concentrations of clones not aligned; FIG. 4
Protocol: DLD-1 cells were added to a 96-well plate (Corning Incorporated, CeIIBIND) to a concentration of 5×10^3 cells/well and subjected to cell staining after culturing for 2 days. The cells were subjected to fixation and permeation treatment in the manner indicated below. After washing the cell culturing plate twice with PBS at 200 μL/well, the washings were removed followed by the addition of 4% para-formaldehyde-phosphate buffer (Wako Pure Chemical Industries, Ltd.) containing 0.1% TRITON™ (surfactant) X-100 (Wako Pure Chemical Industries, Ltd.) at 100 µL/well while cooling with ice and fixing the cells for 10 minutes. After removing the fixation solution, the plate was washed once with PBS at 200 μL/well and once with a mixture of 1% FBS in PBS at 200 μL/well to obtain a cell-immobilized plate. The cells were stained in the manner indicated below. Namely, after removing medium from the non-immobilized cell culturing plate and removing washings from the cell-immobilized plate, […] hybridoma culture supernatant or diluted antibody solution was added at 50 μL/well. After allowing to react for 1 hour on ice, the plate was washed once with PBS at 200 μL/well and twice with a mixture of 1% FBS in PBS at 200 μL/well. After removing the washings, a mixture of 5 μg/mL ALEXAFLUOR 647@ (fluorescent compound) goat anti-rat IgG (H-L), 2 μg/mL Hoechst 33342 and 1% FBS/PBS was added at 50 μL/well. After allowing to react for 1 hour on ice, the plate was washed twice with PBS at 200 μL/well. PBS was then added at 50 μL/well followed by measuring with ArrayScan (Thermo Fisher Scientific Inc.).

[2] = system: hematologic tumor K562 cells; assay: Cytocidal effect of anti-TMEM-180 IgM antibody (WST-8), K562; format: cell-based; settings: hybridoma culture supernatant adjusted to 80, 20 or 5 μg/mL, 96 hours, FIGS. 7 and 8
Protocol: (§1) DLD-1 cells and K562 cells were added to a 96-well plate at 1×10^3 cells/100 μL/well followed by culturing for 24 hours. 50 μL of medium were removed from each well of the 96-well plate followed by the addition of rat IgM antibody clone 98-producing hybridoma culture supernatant or rat IgM antibody clone 101-producing hybridoma culture supernatant, in which antibody concentration had been adjusted to 80 μg/mL, 20 μg/mL or 5 μg/mL, at 50 μL/well. Here, n number in each culture condition was 3, and wells containing medium only were prepared as controls. […] After culturing for 96 hours, WST-8 (Dojindo Laboratories, Cell Counting Kit-8) was added at 10 μL/well followed by measuring absorbance at 450 nm with a microplate reader after culturing for 3 hours. The relative values of absorbance at each antibody concentration were plotted by plotting antibody concentration on the horizontal axis and assigning a value of 1 to the optical absorbance of the well containing medium only. […] Cytocidal effects were also observed for other colon cancer cells Difi, Carl, SW480 and Colo201.

[3] = system: colon cancer DLD-1 cells; assay: Cytocidal effect of anti-TMEM-180 IgM antibody (WST-8), DLD-1; format: cell-based, human; settings: hybridoma culture supernatant adjusted to 80, 20 or 5 μg/mL, 96 hours, FIGS. 7 and 8
Protocol: as §1

[4] = system: colon cancer cell lines; assay: Flow cytometry (FACS) with anti-TMEM-180 IgM clones, colon cancer; format: binding; settings: six types of colon cancers; FIG. 3
Protocol: (§2) Cancer cells targeted for measurement were cultured in medium and then added to a V-bottom 96-well plate (Corning Incorporated) to a concentration of 1×10^5 cells/well. The plate was centrifuged for 3 minutes at 440×g and 4° C. followed by removing the supernatant, adding antibody-producing hybridoma culture supernatant or antibody solution to the cell pellet at 50 μL/well and suspending therein. After allowing to react for 45 minutes on ice, the plate was washed three times with a mixture of 0.1% BSA, 2 mM EDTA and PBS at 200 μL/well. The supernatant was removed and secondary antibody was added to the cell pellet at 50 μL/well followed by suspending the cells therein. ALEXAFLUOR 647@ (fluorescent compound) goat anti-rat IgG (H-L) (Life Technologies Corporation) was used for the secondary antibody after diluting 400-fold with a mixture of 0.1% BSA, 2 mM EDTA and PBS. After allowing to react for 45 minutes on ice, the plate was washed three times with a mixture of 0.1% BSA, 2 mM EDTA and PBS at 200 μL/well. After removing the supernatant, 50 ng/mL of propidium iodide, 0.1% BSA, 2 mM EDTA and PBS were added to the cell pellet at 250 µL/well followed by suspending therein. The cells stained in this manner were measured using a flow cytometer such as the Guava easyCyte 8HT (Merck Millipore Corporation) followed by analysis of the resulting data using FlowJO (Tomy Digital Biology Co., Ltd.). FACS analysis was carried out using colon cancer, brain tumor and hematologic cancer.

[5] = system: brain tumor cell lines; assay: Flow cytometry (FACS) with anti-TMEM-180 IgM clones, brain tumor; format: binding; settings: four types of brain tumors; FIG. 3
Protocol: as §2

[6] = target: T1, TMEM-180; assay: FACS of DLD-1 parent line and TMEM-180 knockout line; format: binding
Protocol: The plate was centrifuged for 3 minutes at 440×g and 4° C. followed by removing the supernatant, adding antibody-producing hybridoma culture supernatant or antibody solution to the cell pellet at 50 μL/well and suspending therein. After allowing to react for 45 minutes on ice, the plate was washed three times with a mixture of 0.1% BSA, 2 mM EDTA and PBS at 200 μL/well. The supernatant was removed and secondary antibody was added to the cell pellet at 50 μL/well followed by suspending the cells therein. […] After allowing to react for 45 minutes on ice, the plate was washed three times with a mixture of 0.1% BSA, 2 mM EDTA and PBS at 200 μL/well. […] The cells stained in this manner were measured using a flow cytometer such as the Guava easyCyte 8HT (Merck Millipore Corporation) followed by analysis of the resulting data using FlowJO (Tomy Digital Biology Co., Ltd.). FACS analysis was carried out using colon cancer, brain tumor and hematologic cancer.
Flow cytometry was carried out in accordance with the procedure described in the above-mentioned section 3. […] The supernatant of a culture of hybridoma producing rat IgM antibody clone 365 was used as a negative control after similarly diluting to 1 μg/mL. […] A mixture of RPMI and 10% FBS was used to dilute each of the antibodies. Furthermore, antibody concentration in the hybridoma culture supernatant was measured by rat IgM-specific ELISA (Bethyl Laboratories).

[7] = system: human colon cancer formalin-fixed section; assay: Immunostaining of formalin-fixed section of human colon cancer surgical specimens; format: binding; settings: 1 μg/mL, FIG. 6
Protocol: Anti-TMEM-180 IgM rat antibody (clone 98) was reacted with a colon cancer formalin-fixed section at 1 μg/mL. HRP-labeled anti-rat antibody was used as secondary antibody and the section was stained with DAB followed by post-staining with hematoxylin.

[8] = system: wild type DLD-1 cells; assay: ADCC activity (51Cr release, TK176V effector cells), wild type DLD-1; format: cell-based, human; settings: ET ratio 40; 4 hours; 0.064 to 1,000 ng/mL; FIGS. 20A to 20D
Protocol: Specifically, TK176V (a natural killer cell line stably expressing FcγRIII) was used as an effector cell, which was obtained from Chemicals Evaluation and Research Institute, Japan. The wild type DLD-1 cell line was used as a target cell.
T1 76V was cultured in RPM11640 containing 10 ng/mL IL-2 and 10% FBS. For passages, the medium was diluted with a fresh medium every 2 to 3 days. In the passage, the cells were detached by a trypsin treatment and then suspended in a fresh medium to be plated on a dish every 2 to 3 days.
The measurement of the ADCC activity was performed as described below.
First, the amount of 51Cr release was measured when only the target cells were cultured in medium as a negative control, which is referred to as “Spontaneous release measurement”. The amount of 51 Cr release was measured when the all target cells were damaged by adding 0.1% TRITON™ (surfactant) X-100, which is referred to as “Max release measurement.”
1) Adding DLD-1 WT labelled with 50 μCi of ^51Cr to a U-bottom, 96 well plate at 5,000 cells/50 μL/well.
2) Adding TK176V at 200,000 cells/50 μL/well (ET ratio: 40): A medium was added at 50 μL/well to the well for Spontaneous release measurement and the well for Max release measurement. […]

Row | Molecule | fluorescent immunostaining (pattern, intensity) [1] | cytocidal effects against K562 cells [2] | cytocidal effects against DLD-1 cells [3] | FACS reactivity to colon cancers [4] | FACS reactivity to brain tumors [5] | FACS shift, TMEM-180 knockout line versus parent line ([6]; DLD-1 parent line vs TMEM-180 knockout line, FIG. 5) | specific recognition of TMEM-180 ([6]; conclusion from DLD-1 parent vs knockout FACS) | staining of colon cancer section ([7]; DAB) | localisation of staining in colon cancer cells [7] | ADCC activity against wild type DLD-1 cells [8]
1 | clone 98: rat IgM anti-TMEM-180 monoclonal antibody; heavy chain variable region SEQ ID NO: 13, light chain variable region SEQ ID NO: 14 (antibody, V domains shown) VH: MAVLVLLLCLVTFPTCVLSQVQLKESGPGLVQPSQTLSLTCTVSGFSLTRYNVHWVRQPTGKGLEWMGVIWTGGSTDYNSALKSRLSISRDTSKSQVFLKMNSLQTEDIATYYCARDLGYWGQGVMVTVSS VL: MMSPAQFLFLLMLWIQETHSDIVMTQTPLSLSVAIGQSASISCKSSQSLKYRDGKTYLNWVFQSPGQSPKRLIYQVSKLDSGVPDRFSGTGSETDFTLKISRVEAEDLGVYYCCQGSYSPHTFGAGTKLELK | stained primarily in the membrane | did not demonstrate cytocidal effects | demonstrated cytocidal effects | positive for all six types of colon cancers | all four types of brain tumors | considerable left shift | specifically recognize TMEM-180 | stained specifically | Both the cell membrane and cytoplasm of the colon cancer cells were stained | 
2 | Variant 1: Fc-modified clone of 1361-5 with triple substitutions S239D/A330L/1332E in the Fc region (antibody) heavy: EVQLVESGGGLVQPGRSLKLSCVASGFTFNNYWMTWIRQAPGKGLEWVASITNTGGSTAYPDSVKGRFTISRDYAKSTLYLQMNSLRSEDTATYYCTRAGYSSYPDYFDYWGQGVMLTVSSASTKGPSVFPLAPSSKSTSGGTAALGCLVKDYFPEPVTVSWNSGALTSGVHTFPAVLQSSGLYSLSSVVTVPSSSLGTQTYICNVNHKPSNTKVDKKVEPKSCDKTHTCPPCPAPELLGGPDVFLFPPKPKDTLMISRTPEVTCVVVDVSHEDPEVKFNWYVDGVEVHNAKTKPREEQYNSTYRVVSVLTVLHQDWLNGKEYKCKVSNKALPLPEEKTISKAKGQPREPQVYTLPPSRDELTKNQVSLTCLVKGFYPSDIAVEWESNGQPENNYKTTPPVLDSDGSFFLYSKLTVDKSRWQQGNVFSCSVMHEALHNHYTQKSLSLSPGK light: MMAPVQLLGLLLLWLPAMRCNIQMTQSPSLLSASVGDRVTLSCKAGQNIYNYLAWYQQKLGEAPKLLIYNANSLQTGIPSRFSGSGSGTDFTLTISSLQPEDVATYFCQQYSSGWTFGGGTKLELKRTVAAPSVFIFPPSDEQLKSGTASVVCLLNNFYPREAKVQWKVDNALQSGNSQESVTEQDSKDSTYSLSSTLTLSKADYEKHKVYACEVTHQGLSSPVTKSFNRGEC |  |  |  |  |  |  |  |  |  | equal to or stronger than that of the 1361-5 antibody
3 | Variant 2: Fc-modified clone of 1361-5 with triple substitutions S239D/1332E/E333A in the Fc region (antibody) heavy: EVQLVESGGGLVQPGRSLKLSCVASGFTFNNYWMTWIRQAPGKGLEWVASITNTGGSTAYPDSVKGRFTISRDYAKSTLYLQMNSLRSEDTATYYCTRAGYSSYPDYFDYWGQGVMLTVSSASTKGPSVFPLAPSSKSTSGGTAALGCLVKDYFPEPVTVSWNSGALTSGVHTFPAVLQSSGLYSLSSVVTVPSSSLGTQTYICNVNHKPSNTKVDKKVEPKSCDKTHTCPPCPAPELLGGPDVFLFPPKPKDTLMISRTPEVTCVVVDVSHEDPEVKFNWYVDGVEVHNAKTKPREEQYNSTYRVVSVLTVLHQDWLNGKEYKCKVSNKALPAPEAKTISKAKGQPREPQVYTLPPSRDELTKNQVSLTCLVKGFYPSDIAVEWESNGQPENNYKTTPPVLDSDGSFFLYSKLTVDKSRWQQGNVFSCSVMHEALHNHYTQKSLSLSPGK light: MMAPVQLLGLLLLWLPAMRCNIQMTQSPSLLSASVGDRVTLSCKAGQNIYNYLAWYQQKLGEAPKLLIYNANSLQTGIPSRFSGSGSGTDFTLTISSLQPEDVATYFCQQYSSGWTFGGGTKLELKRTVAAPSVFIFPPSDEQLKSGTASVVCLLNNFYPREAKVQWKVDNALQSGNSQESVTEQDSKDSTYSLSSTLTLSKADYEKHKVYACEVTHQGLSSPVTKSFNRGEC |  |  |  |  |  |  |  |  |  | equal to or stronger than that of the 1361-5 antibody
